Two molecules from patent publication US8633026B2, “Cytokine induction of selectin ligands on cells” (priority 2006, dated 2014) can be followed below.

For one data set, the system named is CD15. In words: CD15 expression by flow cytometry after G-CSF treatment with or without DANA. The format is cell-based, human. Conditions: for expression of CD15: 10 ng/ml G-CSF, 72 hr. The method, then: Bone marrow cells were treated with 10 ng/mL of G-CSF for 5 days in the presence or absence of 100 mM DANA and expression of CD15 was analyzed by flow cytometry.
(§1) Aliquots of ˜2-5×10^5 cells were washed with PBS, 2% FBS and incubated with primary mAbs. Subsequently, the cells were washed and incubated with species and isotype matched FITC- or PE-labeled polyclonal antibodies. Following this incubation, the cells were washed and FITC or PE fluorescence of cells was determined using a Cytomics FC 500 MPL flow cytometer (Beckman Coulter Inc., Fullerton, Calif.).
(§2) Freshly isolated BM cells were separated into early immature (Band 1), late immature (Band 2) and mature (Band 3) myeloid fractions.
(In flow cytometry, cells or beads pass a laser one at a time.)

Data set [1] has as its system E-selectin ligands on circulating leukocytes. In words: Clinical collections of leukocytes mobilized by G-CSF administration (ML). Format: in vivo, human. From the text:
Materials: G-CSF mobilized peripheral blood (MPB) was obtained from pheresis products of donors for clinical HSCT at Brigham and Women's Hospital/Dana Farber Cancer Institute (Boston, Mass.). G-CSF MPB leukocytes (ML) were isolated from buffy coat of dextran sedimentated whole blood, followed by hypotonic lysis to remove contaminating red cells. Mononuclear fraction of these cells (ML-M) was isolated by Ficoll-Hypaque (1.077 g/ml; Sigma Aldrich) density gradient centrifugation. Native (unmobilized) peripheral blood was obtained from consenting healthy volunteers, and NL (buffy coat) were isolated using dextran sedimentation as for ML. Peripheral blood mononuclear cells (PBMC) were isolated by Ficoll-Hypaque density gradient centrifugation. Polymorphonuclear leukocytes (PMN) were isolated by dextran sedimentation followed by collecting the cell pellet after Ficoll-Hypaque density gradient centrifugation. Contaminated red cells were removed by hypotonic lysis.
A tissue culture dish containing confluent HUVEC monolayer or CHO cells was loaded into a parallel plate flow chamber (Glycotech; Gaithersburg, Md.). […] Primary tethering^49 was determined by quantifying the number of ML or NL that attached (i.e., interacted) from the free stream directly onto HUVEC monolayer or CHO cells during the first 2 minutes of flow. Secondary attachments (i.e., flowing leukocytes interacting with an already adherent leukocyte on HUVEC monolayer or CHO cells) or leukocytes that rolled into the field of observation from the upstream region were not counted. Average rolling velocity, a quantitative measure of selectin binding strength, was computed (using Scion Image) as the displacement by the centroid of the cell divided by the time interval of observation, 5 sec. […]
Aliquots of ˜2-5×10^5 cells were washed with PBS, 2% FBS and incubated with primary mAbs. […] Following this incubation, the cells were washed and FITC or PE fluorescence of cells was determined using a Cytomics FC 500 MPL flow cytometer (Beckman Coulter Inc., Fullerton, Calif.).

A further data set has as its system sialidase. In words: Sialidase expression/activity after G-CSF treatment of human myeloid cells. Format: cell-based.
Description: as §2

In the next data set the test system is endothelial E-selectin. In words: Parallel plate flow chamber adhesion of G-CSF-treated Band 2 cells on stimulated HUVEC. The following applies: 72 hr G-CSF, 1.5 dyne/cm^2, IL-1β-stimulated HUVEC. The format is cell-based, human. From the text: FIGS. 12A-B illustrates G-CSF treatment enhances the capability of human BM cells to adhere to endothelial E-selectin under physiologic flow conditions. HUVEC were stimulated with IL-1β for 4-6 hrs. Subsequently, untreated or 72 hr. G-CSF-treated Band 2 cells were perfused over HUVEC at 1.5 dyne/cm^2. In certain instances, stimulated HUVEC were pretreated with a mAb to E-selectin prior to use in adhesion assays. […]
A tissue culture dish containing confluent HUVEC monolayer or CHO cells was loaded into a parallel plate flow chamber (Glycotech; Gaithersburg, Md.). […] Primary tethering^49 was determined by quantifying the number of ML or NL that attached (i.e., interacted) from the free stream directly onto HUVEC monolayer or CHO cells during the first 2 minutes of flow. Secondary attachments (i.e., flowing leukocytes interacting with an already adherent leukocyte on HUVEC monolayer or CHO cells) or leukocytes that rolled into the field of observation from the upstream region were not counted. Average rolling velocity, a quantitative measure of selectin binding strength, was computed (using Scion Image) as the displacement by the centroid of the cell divided by the time interval of observation, 5 sec.

A further data set relates to L-selectin. In words: Flow cytometry of L-selectin on G-CSF-treated BM cells. Format: cell-based, human. The following applies: in vitro, 10 ng/ml G-CSF, 72 hr. The method, then: as §1
The subject of the next data set is Fuct-IX. In words: FucT-IX expression after in vitro G-CSF treatment. The following applies: normal progenitors and mobilized peripheral blood, 10 ng/ml G-CSF, 72 hr. The format is cell-based, human. From the text: Lane 1 are normal cells isolated from bone marrow from healthy donor. Lane 2 are G-CSF treated normal progenitors isolated from bone marrow from healthy donor. Lane 3 are untreated cells isolated from G-CSF mobilized blood. Lane 4 are G-CSF treated cells isolated from G-CSF mobilized blood.
CD15 plays a role in innate immunity in priming dendritic cells. Moreover, FTIX fucosylates internal lactosamine units yielding the VIM-2 epitope. While, the VIM-2 is not sLex, but it consists of a terminal sialic acid with an “internal fucosylation” that can function as an E-selectin ligand

Data set [2] has as its system ST3GalIV, FucT-IV and FucT-VII. In words: RT-PCR of glycosyltransferases in G-CSF-treated Band 2 BM cells. The following applies: immature human BM cells (Band 2), 10 ng/ml G-CSF, 72 hr. Format: cell-based. From the text:
ID NO:1) and antisense [NT] NO:2); FucT-VII, sense [NT] ID NO:3) and antisense [NT] ID NO:4); FucT-IV, sense […] NO:5) and antisense […] NO:6); GAPDH sense [NT] ID NO:8) and antisense [NT] ID NO:9).

For data set [3], the system named is Hcell and HECA-452-reactive ˜65 kDa glycoprotein on human BM cells. In words: In vitro G-CSF treatment of human BM cells, HECA-452 and E-Ig Western blots. The format is cell-based. As for the experimental part:
Normal human bone marrow (BM) cells were isolated from human BM harvest material (Massachusetts General Hospital, Boston, Mass.). Red cells were separated using dextran sedimentation method. The leukocyte-rich supernatant was subjected to a two-step discontinuous Percoll (Amersham Pharmacia Biotech; Piscataway, N.J.) density gradient centrifugation (1.065 g/ml and 1.080 g/ml; 1000 g for 20 min at 4° C.). […] The cells with least density found at the upper band (“Band 1”) contained early immature cells (myeloblasts and promyelocytes), “Band 2” contained late immature cells (primarily myelocytes and metamyelocytes), and “Band 3” contained the most mature leukocytes (predominantly band and segmented neutrophils) as well as some contaminating red cells, which were subsequently removed by hypotonic lysis. The cells in different bands were collected, washed and used for further studies. In some instances, BM mononuclear cells (BM-MNC) were isolated by Ficoll-Hypaque density gradient centrifugation. CD34+/lineage—subpopulation was isolated from BM-MNC using a negative cell selection StemSep™ human progenitor enrichment cocktail (Stem Cell Technologies Inc.); CD34+ cells were then further isolated by positive selection using anti-CD34 immunomagnetic beads (Miltenyi Biotech.), routinely resulting in populations of >98% CD34+ cells.
Membrane proteins of purified ML-M, ML-G, PMN, or PBMC were isolated as described previously^28,39. Membrane protein suspensions were aliquoted and stored at −20° C. For SDS-PAGE and Western blotting, membrane preparations were diluted in reducing sample buffer, boiled and then separated on 4-20% or 7.5% Criterion Tris-HCl SDS-PAGE gels (Bio-Rad Laboratories). Resolved membrane proteins were transferred to Sequi-blot polyvinylidene diflouride (PVDF) membrane (Bio-Rad Laboratories) and blocked with heat inactivated FBS. Blots were incubated with primary antibodies or E-Ig (each at 1 μg/ml). Appropriate isotype control immunoblots (each at 1 μg/ml) were performed in parallel to evaluate nonspecific binding to protein bands. […]
(In general: A western blot detects proteins with antibodies after separation by electrophoresis.)

Setting [4] is: multiple clinical ML collections, G-CSF administration.

For the molecule `CC(=O)N[C@H]1[C@H]([C@H](O)[C@H](O)CO)OC(C(=O)O)=C[C@@H]1O` [DANA, 2-deoxy-2,3-dehydro-N-acetyl-neuraminic acid, reference compound], the “G-CSF-induced increase in CD15 under sialidase inhibition” value in the data set with CD15 (bone marrow cells, 10 ng/mL G-CSF for 5 days, 100 mM DANA, flow cytometry) is on record as “blunts G-CSF-induced increase in CD15”. Also, the “G-CSF-induced increase of CD15 under sialidase inhibition” value with CD15 (late mature bone marrow and leukocytes, G-CSF-treated) is “could be prevented”.

B1: G-CSF: recombinant human granulocyte colony stimulating factor (Amgen), cytokine (protein, UniProt P09919 31-207, looked up)
Granulocyte …: TPLGPASSLPQSFLLKCLEQVRKIQGDGAALQEKLVSECATYKLCHPEELVLLGHSLGIPWAPLSSCPSQALQLAGCLSQLHSGLFLYQGLLQALEGISPELGPTLDTLQLDVADFATTIWQQMEELGMAPALQPTQGAMPAFASAFQRRAGGVLVASHLQSFLEVSYRVLRHLAQP
B1: the “surface L-selectin expression on circulating leukocytes” value in data set [1] (following G-CSF administration, flow cytometry) is “marked decrease in surface L-selectin expression”. Besides, in data set [1] (setting [4]), the “E-selectin ligand activity of circulating leukocytes” value is reported as “uniformly increased E-selectin ligand activity”; the “expression of the E-selectin ligands HCELL and the HECA-452-reactive ˜65 kDa glycoprotein” value is given as “upregulated the expression”. Besides, in the data set on sialidase (bone marrow and leukocytes, 10 ng/ml G-CSF, 72 hr), the expression of sialidase entry was “increase expression of sialidase”. The sialidase activity result with sialidase (human myeloid bone marrow cells, 10 ng/mL G-CSF, 24 hours, 4-MU-NANA substrate) is listed as “increases sialidase activity”. In the data set with endothelial E-selectin, the “E-selectin binding (primary tethering, rolling velocity on stimulated HUVEC)” value is given as “enhanced E-selectin binding”. In the data set with CD15 (early immature bone marrow), the “expression of CD15” value is “did not has an effect”. Further, the “expression of CD15” value in the data set on CD15 (late mature bone marrow and leukocytes) is reported as “increased expression of CD15”. Besides, in the data set on L-selectin, the “L-selectin expression on G-CSF treated cells relative to untreated cells” value is recorded as “down-regulation of L-selectin expression”. For the same molecule, in the data set on Fuct-IX, the Fuct-IX expression entry is listed as “increases Fuct-IX expression”. In data set [2], the “expression levels of ST3GalIV, FucT-IV and FucT-VII” value is on record as “increases in expression levels”. The “expression of Hcell and the HECA-452-reactive ˜65 kDa glycoprotein” value in data set [3] (10 ng/ml G-CSF, 72 hr, 37° C., predominantly immature Band 1 and Band 2 human BM cells) is on record as “up-regulation in expression”. In addition, the “HCELL induction on lymphocytes” value in data set [3] (lymphocytes in BM or in blood) is reported as “not induced”. In addition, in data set [3] (mature myeloid BM cells), the “inducing HCELL expression among mature myeloid BM cells” value was “only a variable effect”.
